In US20250296973A1, “TREATMENT METHOD USING MAZDUTIDE” (Innovent Biologics (Suzhou) Co., Ltd., priority 2022, published 2025):
Starred links: 1 amine or outer side, 2 acyl side, 3 side chain; linkers in the order of their positions; H or OH if unused. Non-standard residues stand in square brackets, D forms with d. Groups on a side chain read outwards from the residue. No end group written: not given here. *: point of attachment. C20 diacid = O=C(O)CCCCCCCCCCCCCCCCCCC(=O)*; γGlu = O=C(O)[C@H](CCC(=O)[*:2])N[*:1]; AEEA = NCCOCCOCC(=O)O; Aib = CC(C)(N)C(=O)O

Legend:
[1] = Clinical trial of mazdutide dosing regimen (Example 1, 5 cohorts, overweight or obese subjects); type: in vivo, human; details: for least squares mean of percent change from baseline in body weight: sc once weekly, after 12 weeks
Text: The contents in the vial were reconstituted in sterile water for injection to give a clear solution of mazdutide.
• 1. Aged 18-75 years (inclusive), male or female. • 2. For obesity, BMI≥28.0 kg/m^2; for overweight, 24≤BMI<28.0 kg/m^2 with at least one of the following: i, increased appetite, intolerable hunger before meals, and increased food consumption; ii, comorbidity with one or more of pre-diabetes (impaired fasting glucose and/or impaired glucose tolerance), hypertension, dyslipidemia, and fatty liver (within 6 months before the screening); iii, comorbidity with weight-bearing joint pain; iv, obesity-related dyspnea or obstructive sleep apnea syndrome. • 3. Weight change <5% after at least 12 weeks of diet/exercise weight control alone at the time of screening.
• 1. Use of any of the following drugs or treatments before the screening: • 1) previous use of either GLP-1 receptor (GLP-1R) agonists or GLP-1R/GCGR agonists; • 2) use of drugs that may have an effect on body weight within 3 months before the screening, including: systemic steroid hormone therapy (intravenous, oral, or intraarticular administration), metformin, SGLT2 inhibitors, thiazolidinediones (TZD), tricyclic antidepressants, psychotropic agents, or sedatives (e.g., imipramine, amitriptyline, mirtazapine, paroxetine, phenelzine, chlorpromazine, thioridazine, clozapine, olanzapine, valproic acid, valproic acid derivatives, and lithium salts), and the like; • 3) use of Chinese herbal medicines or health care products that may have an effect on body weight within 3 months before the screening; • 4) previous or current use of weight-loss drugs within 3 months before the screening, such as: sibutramine hydrochloride, orlistat, phentermine, phenylpropanolamine, mazindol, phentermine, amfepramone, lorcaserin, compounded phentermine/topiramate, compounded […], etc.; • 5) participation in other clinical trials (reception of the test drug treatment) within 3 months before the screening. • 2. […] Alcohol abuse is defined as: over 21 units for men or over 14 units for women weekly on average, or unwillingness to cease drinking within 24 hours before dosing and throughout the study period (one unit=360 mL of beer, or 150 mL of wine, or 45 mL of distilled spirits); • 21) drug abuse and positivity in a urine test for drugs at the time of screening. • 3. Any one of the laboratory tests meets the following criteria (those of proper reasons at the time of screening can be re-examined within one week, and the reason for retesting should be documented by the investigator): • 1) serum calcitonin ≥15 ng/L at the time of screening; • 2) at the time of screening, alanine aminotransferase ≥2.0×ULN and/or aspartate aminotransferase ≥2.0×ULN and/or total bilirubin ≥1.0×ULN and/or alkaline phosphatase ≥2.0×ULN; • 3) glomerular filtration rate eGFR<60 mL/min/1.73 m^2 at the time of screening, as estimated using the CKD-EPI equation; • 4) abnormal thyroid function (FT3, FT4, or TSH) at the time of screening; • 5) fasting triglyceride >5.64 mmol/L (500 mg/dL) at the time of screening: if the patient is receiving a lipid-regulating treatment, the dose of the treatment must be stable for 30 days before the screening; • 6) blood amylase or lipase >2.0×ULN at the time of screening; • 7) an international normalized ratio (INR) of prothrombin time greater than the upper limit of the normal range at the time of screening. • 4. Heart rate <50 beats/min or >90 beats/min as measured by 12-lead electrocardiogram (ECG) at the time of screening. • 5. Clinically significant abnormality in 12-lead ECG at the time of screening: atrioventricular block degree II or degree III, long QT syndrome or QTcF>450 ms (see Attachment 3 for the formula), PR interval <120 ms or PR interval >220 ms, QRS>120 ms, left or right bundle branch block, pre-excitation syndrome or severe arrhythmia requiring treatment in the absence of cardiac pacemaker. • 6. […]

[2] = 3.0-6.0-9.0 mg QW sc, after 24 consecutive weeks

mazdutide (H[Aib]QGTFTSDYSKYLDEKKAK([AEEA-AEEA-γGlu-C20 diacid])EFVEWLLEGGGPSSG-NH2; N-terminus assumed; SMILES CC(C)C[C@H](NC(=O)[C@H](CC(C)C)NC(=O)[C@H](Cc1c[nH]c2ccccc12)NC(=O)[C@H](CCC(=O)O)NC(=O)[C@@H](NC(=O)[C@H](Cc1ccccc1)NC(=O)[C@H](CCC(=O)O)NC(=O)[C@H](CCCCNC(=O)COCCOCCNC(=O)COCCOCCNC(=O)CC[C@H](NC(=O)CCCCCCCCCCCCCCCCCCC(=O)O)C(=O)O)NC(=O)[C@H](C)NC(=O)[C@H](CCCCN)NC(=O)[C@H](CCCCN)NC(=O)[C@H](CCC(=O)O)NC(=O)[C@H](CC(=O)O)NC(=O)[C@H](CC(C)C)NC(=O)[C@H](Cc1ccc(O)cc1)NC(=O)[C@H](CCCCN)NC(=O)[C@H](CO)NC(=O)[C@H](Cc1ccc(O)cc1)NC(=O)[C@H](CC(=O)O)NC(=O)[C@H](CO)NC(=O)[C@@H](NC(=O)[C@H](Cc1ccccc1)NC(=O)[C@@H](NC(=O)CNC(=O)[C@H](CCC(N)=O)NC(=O)C(C)(C)NC(=O)[C@@H](N)Cc1c[nH]cn1)[C@@H](C)O)[C@@H](C)O)C(C)C)C(=O)N[C@@H](CCC(=O)O)C(=O)NCC(=O)NCC(=O)NCC(=O)N1CCC[C@H]1C(=O)N[C@@H](CO)C(=O)N[C@@H](CO)C(=O)NCC(N)=O)
TEAEs resulting in permanent drug withdrawal ([1]; all 5 cohorts): no TEAEs resulting in permanent drug withdrawal occurred | severe TEAEs ([1]; all 5 cohorts): no severe TEAEs were reported | severe hypoglycemic events ([1]; all 5 cohorts): no severe hypoglycemic events occurred | severity of treatment emergent adverse events (TEAEs) ([1]; all 5 cohorts): Most treatment emergent adverse events (TEAEs) were mild | treatment emergent serious adverse events (TESAEs) ([1]; all 5 cohorts): no treatment emergent serious adverse events (TESAEs) occurred | least squares mean of percent change from baseline in body weight ([1]; cohort 2: 1.5 mg 4 wk + 3.0 mg 4 wk + 4.5 mg 4 wk): −6.40% | least squares mean of percent change from baseline in body weight ([1]; cohort 3: 2.0 mg 4 wk + 4.0 mg 4 wk + 6.0 mg 4 wk): −6.05% | least squares mean of percent change from baseline in body weight ([1]; cohort 5: 3.0 mg 4 wk + 6.0 mg 4 wk + 9.0 mg 4 wk): −11.7% | weight loss effect at week 12 in indirect comparison with similar drugs ([1]; cohort 5 regimen vs 2.4 mg Semaglutide and 10 mg or 15 mg Tirzepatide regimens, FIG. 6): particularly pronounced weight loss effect | improvement of blood pressure, blood lipid and serum uric acid levels ([1]; different doses in 5 cohorts, FIGS. 3-5 for cohorts 4 and 5): good beneficial effects | subjects with body weight reduced by at least 5% from baseline [2]: 81.7% | subjects with body weight reduced by at least 10% from baseline [2]: 65.0% | subjects with body weight reduced by at least 15% from baseline [2]: 31.7% | subjects with body weight reduced by at least 20% from baseline [2]: 21.7% | dropout rate of the treatment group (human, in vivo): lower than that of the placebo group overall | early termination of treatment due to adverse events (human, in vivo): no subject in the treatment group has terminated treatment in advance due to adverse events | most common treatment emergent adverse events (human, in vivo): gastrointestinal-related adverse events | serious adverse events (human, in vivo): no serious adverse event has occurred
